Reference: patent publication US20150037328A1 (Pfizer, published 2015)

Legend:
[1] = target: T1, human CXCR4 (chemokine (C-X-C motif) receptor 4) (human, UniProt P61073 1-352); test: flow cytometry on HPB-ALL cells, Fab at 2.5 µg/ml
T1 construct: Endogenous on human tumour cell lines (Ramos, HPB-ALL, Raji, Jurkat, MM1.S, RPMI-8226, MOLP-8, MOLT-4) or transfected into CHO-K1 cells (DiscoveRx); also called CXCR4 receptor

[2] = target: T1, human CXCR4 (chemokine (C-X-C motif) …); test: flow cytometry on HPB-ALL cells, Fab at 0.25 µg/ml

T1 sequence (P61073 whole entry): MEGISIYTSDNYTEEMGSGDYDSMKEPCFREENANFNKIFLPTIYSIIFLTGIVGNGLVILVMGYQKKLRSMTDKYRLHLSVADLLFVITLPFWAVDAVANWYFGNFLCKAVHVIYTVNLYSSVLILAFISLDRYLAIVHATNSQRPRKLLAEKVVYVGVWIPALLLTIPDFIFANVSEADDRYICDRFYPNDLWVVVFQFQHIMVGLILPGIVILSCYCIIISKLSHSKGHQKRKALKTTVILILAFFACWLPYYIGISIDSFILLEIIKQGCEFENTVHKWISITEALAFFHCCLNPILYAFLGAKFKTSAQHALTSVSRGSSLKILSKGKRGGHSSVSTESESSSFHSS

Binder	MFI [1]	MFI [2]
h3G10.1.7 VH / h3G10.2.72 VL Fab (Fab, V domains shown, Tested as Fab) VH: EVQLVESGGGLVQPGGSLRLSCAASGFTFSDYYMSWVRQAPGKGLEWVGFIRHKANKYTTEYSTSVKGRFTISRDDSKNSLYLQMNSLKTEDTAVYYCARDLPGFAYWGQGTLVTVSS VL: DIVMTQSPDSLAVSLGERATINCKSSQSLFNSRTRKNYLAWYQQKPGQPPKLLIYWASARESGVPDRFSGSGSGTDFTLTISSLQAEDVAVYYCKQSFRLRTFGGGTKVEIK	4120	768
h3G10.2.42 VH / h3G10.2.72 VL Fab (Fab, V domains shown, Tested as Fab) VH: EVQLVESGGGLVQPGGSLRLSCAASGFTFSDYYMSWVRQAPGKGLEWVGFIRHKVNFYTTEYSTSVKGRFTISRDDSKNSLYLQMNSLKTEDTAVYYCARDLPGFAYWGQGTLVTVSS VL: DIVMTQSPDSLAVSLGERATINCKSSQSLFNSRTRKNYLAWYQQKPGQPPKLLIYWASARESGVPDRFSGSGSGTDFTLTISSLQAEDVAVYYCKQSFRLRTFGGGTKVEIK	4720	1760
h3G10.1.60 VH / h3G10.2.72 VL Fab (Fab, V domains shown, Tested as Fab) VH: EVQLVESGGGLVQPGGSLRLSCAASGFTFSDYYMSWVRQAPGKGLEWVGFIRHKANVYTTEYSTSVKGRFTISRDDSKNSLYLQMNSLKTEDTAVYYCARDLPGFAYWGQGTLVTVSS VL: DIVMTQSPDSLAVSLGERATINCKSSQSLFNSRTRKNYLAWYQQKPGQPPKLLIYWASARESGVPDRFSGSGSGTDFTLTISSLQAEDVAVYYCKQSFRLRTFGGGTKVEIK	2810	396
h3G10.3.25 VH / h3G10.2.72 VL Fab (Fab, V domains shown, Tested as Fab) VH: EVQLVESGGGLVQPGGSLRLSCAASGFTFSDYYMSWVRQAPGKGLEWVGFIRHKANFYTTEYSTSDKGRFTISRDDSKNSLYLQMNSLKTEDTAVYYCARDLPGFAYWGQGTLVTVSS VL: DIVMTQSPDSLAVSLGERATINCKSSQSLFNSRTRKNYLAWYQQKPGQPPKLLIYWASARESGVPDRFSGSGSGTDFTLTISSLQAEDVAVYYCKQSFRLRTFGGGTKVEIK	2680	454
h3G10.2.5 VH / h3G10.2.72 VL Fab (Fab, V domains shown, Tested as Fab) VH: EVQLVESGGGLVQPGGSLRLSCAASGFTFSDYYMSWVRQAPGKGLEWVGFIRHKANIYTTEYSTSVKGRFTISRDDSKNSLYLQMNSLKTEDTAVYYCARDLPGFAYWGQGTLVTVSS VL: DIVMTQSPDSLAVSLGERATINCKSSQSLFNSRTRKNYLAWYQQKPGQPPKLLIYWASARESGVPDRFSGSGSGTDFTLTISSLQAEDVAVYYCKQSFRLRTFGGGTKVEIK	2790	390
h3G10.2.54 VH / h3G10.2.72 VL Fab (Fab, V domains shown, Tested as Fab) VH: EVQLVESGGGLVQPGGSLRLSCAASGFTFSDYYMSWVRQAPGKGLEWVGFIRHKANFYTTEYSTSVRGRFTISRDDSKNSLYLQMNSLKTEDTAVYYCARDLPGFAYWGQGTLVTVSS VL: DIVMTQSPDSLAVSLGERATINCKSSQSLFNSRTRKNYLAWYQQKPGQPPKLLIYWASARESGVPDRFSGSGSGTDFTLTISSLQAEDVAVYYCKQSFRLRTFGGGTKVEIK	4610	1740
h3G10.2.45 VH / h3G10.2.72 VL Fab (Fab, V domains shown, Tested as Fab) VH: EVQLVESGGGLVQPGGSLRLSCAASGFTFSDYYMSWVRQAPGKGLEWVGFIRHKANFYTTEYSTWVKGRFTISRDDSKNSLYLQMNSLKTEDTAVYYCARDLPGFAYWGQGTLVTVSS VL: DIVMTQSPDSLAVSLGERATINCKSSQSLFNSRTRKNYLAWYQQKPGQPPKLLIYWASARESGVPDRFSGSGSGTDFTLTISSLQAEDVAVYYCKQSFRLRTFGGGTKVEIK	2780	929
h3G10.1.33 VH / h3G10.2.72 VL Fab (Fab, V domains shown, Tested as Fab) VH: EVQLVESGGGLVQPGGSLRLSCAASGFTFSDYYMSWVRQAPGKGLEWVGFIRHKANFYTTEYSTSVTGRFTISRDDSKNSLYLQMNSLKTEDTAVYYCARDLPGFAYWGQGTLVTVSS VL: DIVMTQSPDSLAVSLGERATINCKSSQSLFNSRTRKNYLAWYQQKPGQPPKLLIYWASARESGVPDRFSGSGSGTDFTLTISSLQAEDVAVYYCKQSFRLRTFGGGTKVEIK	4140	848
